Measured values taken from patent US11708423B2, “Chimeric engulfment receptor molecules and methods of use” (CERO THERAPEUTICS, INC., priority 2017, dated 2023).

Legend:
[1] = tested on: H1975 lung adenocarcinoma cells; test: LDH assay, H1975 cells, 48 hours co-culture with 1 μM Osimeritinib; format: cell-based; details: E:T 1:1, 48 hours, CD4+ T cells
From the text: CER30 comprises a Tim4 binding domain, Tim4 transmembrane domain, and an engulfment signaling domain comprising a primary engulfment signaling domain comprising a TRAF2 signaling domain. CER30 has a polypeptide sequence as set forth in SEQ ID NO:96. CER110 has a polypeptide sequence of SEQ ID NO:125 and comprises a Tim4 binding domain, Tim4 transmembrane domain, and an engulfment signaling domain comprising a primary engulfment signaling domain comprising a TRAF6 signaling domain and a secondary engulfment signaling domain comprising a DAP12 signaling domain. CER112 has a polypeptide sequence of SEQ ID NO:128 and comprises a Tim4 binding domain, Tim4 transmembrane domain, and an engulfment signaling domain comprising a primary engulfment signaling domain comprising a TRAF6 signaling domain and a secondary engulfment signaling domain comprising a NFAM1 signaling domain. CER127 has a polypeptide sequence of SEQ ID NO:175 and comprises a Tim4 binding domain, Tim4 transmembrane domain, and an engulfment signaling domain comprising a primary engulfment signaling domain comprising a TRAF2 signaling domain and a secondary engulfment signaling domain comprising a TLR2 signaling domain. H1975 cells are more resistant to EGFR inhibitors, so Osimeritinib was used at slightly higher concentration. H1975 lung adenocarcinoma cells harboring an EGFR mutation were co-cultured with CER-expressing or mock-transduced (vector only) CD4+ T cells with 1 μM of Osimeritinib. After 48 hours of co-culture at a 1:1 effector:target cell ratio, T cells were washed away, and the number of viable H1975 cells was quantified using a calorimetric LDH assay (FIG. 57). Cell viability experiments were performed in triplicate and presented as % of control.

SCC152 cells = test: Phagocytic activity of tandem expression cassette transduced CD8+ T cells; format: cell-based, human; details: for phagocytosis of SCC152 cells: CD8+ T cells, 6 hours, 1:1 ratio; for dependence of engulfment of SCC152 cells on Racl: Racl inhibitor NSC23766 (50 μM), data not shown
Method: Phagocytic activity of tandem expression cassette transduced CD8+ T cells was detected by co-culturing tandem expression cassette transduced CD8+ T cells with SCC152 cells for 6 hours at a 1:1 ratio. Phagocytic events were visualized and quantified using KEYENCE BZ-X710 fluorescence microscope, 20X objective and hybrid capture software.

Molecule | killing of H1975 cells (LDH) [1] | phagocytosis of SCC152 cells (SCC152 cells) | dependence of engulfment of SCC152 cells on Racl (SCC152 cells)
CER120: Tim4 binding and transmembrane domains, TLR1 primary and DAP12 secondary signaling domains; SEQ ID NO:147 (protein, CER120 protein) MSKGLLLLWLVTELWWLYLTPAASEDTIIGFLGQPVTLPCHYLSWSQSRNSMCWGKGSCPNSKCNAELLRTDGTRIISRKSTKYTLLGKVQFGEVSLTISNTNRGDSGVYCCRIEVPGWFNDVKKNVRLELRRATTTKKPTTTTRPTTTPYVTTTTPELLPTTVMTTSVLPTTTPPQTLATTAFSTAVTTCPSTTPGSFSQETTKGSAFTTESETLPASNHSQRSMMTISTDIAVLRPTGSNPGILPSTSQLTTQKTTLTTSESLQKTTKSHQINSRQTILIIACCVGFVLMVLLFLAFLSYLDLPWYLRMVCQWTQTRRRARNIPLEELQRNLQFHAFISYSGHDSFWVKNELLPNLEKEGMQICLHERNFVPGKSIVENIITCIEKSYKSIFVLSPNFVQSEWCHYELYFAHHNLFHEGSNSLILILLEPIPQYSIPSSYHKLKSLMARRTYLEWPKEKSKRGLFWANLRAAINIKLTEQAKKYFLGRLVPRGRGAAEAATRKQRITETESPYQELQGQRSDVYSDLNTQRPYYK | synergistic killing of H1975 lung adenocarcinoma cells upon EGFR inhibition | – | –
CER29−HPV16 E7 TCR: tandem expression cassette: CER29, T2A peptide, HPV16 E7 specific TCR; SEQ ID NO:169 (protein, CER29_T2A_HPV16_E7_TCR tandem cassette) MSKGLLLLWLVTELWWLYLTPAASEDTIIGFLGQPVTLPCHYLSWSQSRNSMCWGKGSCPNSKCNAELLRTDGTRIISRKSTKYTLLGKVQFGEVSLTISNTNRGDSGVYCCRIEVPGWFNDVKKNVRLELRRATTTKKPTTTTRPTTTPYVTTTTPELLPTTVMTTSVLPTTTPPQTLATTAFSTAVTTCPSTTPGSFSQETTKGSAFTTESETLPASNHSQRSMMTISTDIAVLRPTGSNPGILPSTSQLTTQKTTLTTSESLQKTTKSHQINSRQTILIIACCVGFVLMVLLFLAFLMSLLNCENSCGSSQSESDCCVAMASSCSAVTKDDSVGGTASTGNLSSSFMEEIQGYDVEFDPPLESKYECPICLMALREAVQTPCGHRFCKACIIKSIRDAGHKCPVDNEILLENQLFPDNFAKREILSLMVKCPNEGCLHKMELRHLEDHQAHCEFALMDCPQCQRPFQKFHINIHILKDCPRRQVSCDNCAASMAFEDKEIHDQNCPLANVICEYCNTILIREQMPNHYDLDCPTAPIPCTFSTFGCHEKMQRNHLARHLQENTQSHMRMLALEGGGEGRGSLLTCGDVEENPGPMAPGLLCWALLCLLGAGLVDAGVTQSPTHLIKTRGQQVTLRCSPKSGHDTVSWYQQALGQGPQFIFQYYEEEERQRGNFPDRFSGHQFPNYSSELNVNALLLGDSALYLCASSLGWRGGRYNEQFFGPGTRLTVLEDLRNVTPPKVSLFEPSKAEIANKQKATLVCLARGFFPDHVELSWWVNGKEVHSGVCTDPQAYKESNYSYCLSSRLRVSATFWHNPRNHFRCQVQFHGLSEEDKWPEGSPKPVTQNISAEAWGRADCGITSASYQQGVLSATILYEILLGKATLYAVLVSTLVVMAMVKRKNSRAKRSGSGATNFSLLKQAGDVEENPGPMWGVFLLYVSMKMGGTTGQNIDQPTEMTATEGAIVQINCTYQTSGFNGLFWYQQHAGEAPTFLSYNVLDGLEEKGRFSSFLSRSKGYSYLLLKELQMKDSASYLCASVDGNNRLAFGKGNQVVVIPNIQNPEPAVYQLKDPRSQDSTLCLFTDFDSQINVPKTMESGTFITDKCVLDMKAMDSKSNGAIAWSNQTSFTCQDIFKETNATYPSSDVPCDATLTEKSFETDMNLNFQNLLVIVLRILLLKVAGFNLLMTLRLWSS | – | capable of phagocytosing SCC152 cells | Racl-dependent manner
CER112: Tim4 binding and transmembrane domains, truncated Traf6 primary and NFAM1 secondary signaling domains; SEQ ID NO:128 (protein, CER112 chimeric engulfment receptor) MSKGLLLLWLVTELWWLYLTPAASEDTIIGFLGQPVTLPCHYLSWSQSRNSMCWGKGSCPNSKCNAELLRTDGTRIISRKSTKYTLLGKVQFGEVSLTISNTNRGDSGVYCCRIEVPGWFNDVKKNVRLELRRATTTKKPTTTTRPTTTPYVTTTTPELLPTTVMTTSVLPTTTPPQTLATTAFSTAVTTCPSTTPGSFSQETTKGSAFTTESETLPASNHSQRSMMTISTDIAVLRPTGSNPGILPSTSQLTTQKTTLTTSESLQKTTKSHQINSRQTILIIACCVGFVLMVLLFLAFLMSLLNCENSCGSSQSESDCCVAMASSCSAVTKDDSVGGTASTGNLSSSFMEEIQGYDVEFDPPLESKYECPICLMALREAVQTPCGHRFCKACIIKSIRDAGHKCPVDNEILLENQLFPDNFAKREILSLMVKCPNEGCLHKMELRHLEDHQAHCEFALMDCPQCQRPFQKFHINIHILKDCPRRQVSCDNCAASMAFEDKEIHDQNCPLANVICEYCNTILIREQMPNHYDLDCPTAPIPCTFSTFGCHEKMQRNHLARHLQENTQSHMRMLALWNKKRMRGPGKDPTRKCPDPRSASSPKQHPSESVYTALQRRETEVYACIENEDGSSPTAKQSPLSQERPHRFEDDGELNLVYENL | synergistic killing of H1975 lung adenocarcinoma cells upon EGFR inhibition | – | –
CER110: Tim4 binding and transmembrane domains, truncated Traf6 primary and DAP12 secondary signaling domains; SEQ ID NO:125 (protein, CER110 chimeric engulfment receptor) MSKGLLLLWLVTELWWLYLTPAASEDTIIGFLGQPVTLPCHYLSWSQSRNSMCWGKGSCPNSKCNAELLRTDGTRIISRKSTKYTLLGKVQFGEVSLTISNTNRGDSGVYCCRIEVPGWFNDVKKNVRLELRRATTTKKPTTTTRPTTTPYVTTTTPELLPTTVMTTSVLPTTTPPQTLATTAFSTAVTTCPSTTPGSFSQETTKGSAFTTESETLPASNHSQRSMMTISTDIAVLRPTGSNPGILPSTSQLTTQKTTLTTSESLQKTTKSHQINSRQTILIIACCVGFVLMVLLFLAFLMSLLNCENSCGSSQSESDCCVAMASSCSAVTKDDSVGGTASTGNLSSSFMEEIQGYDVEFDPPLESKYECPICLMALREAVQTPCGHRFCKACIIKSIRDAGHKCPVDNEILLENQLFPDNFAKREILSLMVKCPNEGCLHKMELRHLEDHQAHCEFALMDCPQCQRPFQKFHINIHILKDCPRRQVSCDNCAASMAFEDKEIHDQNCPLANVICEYCNTILIREQMPNHYDLDCPTAPIPCTFSTFGCHEKMQRNHLARHLQENTQSHMRMLAYFLGRLVPRGRGAAEAATRKQRITETESPYQELQGQRSDVYSDLNTQRPYYK | synergistic killing of H1975 lung adenocarcinoma cells upon EGFR inhibition | – | –
CER31−HPV16 E7 TCR: tandem expression cassette: CER31, T2A peptide, HPV16 E7 specific TCR; SEQ ID NO:170 (protein, CER31_T2A_HPV16_E7_TCR tandem cassette) MSKGLLLLWLVTELWWLYLTPAASEDTIIGFLGQPVTLPCHYLSWSQSRNSMCWGKGSCPNSKCNAELLRTDGTRIISRKSTKYTLLGKVQFGEVSLTISNTNRGDSGVYCCRIEVPGWFNDVKKNVRLELRRATTTKKPTTTTRPTTTPYVTTTTPELLPTTVMTTSVLPTTTPPQTLATTAFSTAVTTCPSTTPGSFSQETTKGSAFTTESETLPASNHSQRSMMTISTDIAVLRPTGSNPGILPSTSQLTTQKTTLTTSESLQKTTKSHQINSRQTILIIACCVGFVLMVLLFLAFLMESSKKMDSPGALQTNPPLKLHTDRSAGTPVFVPEQGGYKEKFVKTVEDKYKCEKCHLVLCSPKQTECGHRFCESCMAALLSSSSPKCTACQESIVKDKVFKDNCCKREILALQIYCRNESRGCAEQLMLGHLLVHLKNDCHFEELPCVRPDCKEKVLRKDLRDHVEKACKYREATCSHCKSQVPMIALQKHEDTDCPCVVVSCPHKCSVQTLLRSELSAHLSECVNAPSTCSFKRYGCVFQGTNQQIKAHEASSAVQHVNLLKEWSNSLEKKVLEGGGEGRGSLLTCGDVEENPGPMAPGLLCWALLCLLGAGLVDAGVTQSPTHLIKTRGQQVTLRCSPKSGHDTVSWYQQALGQGPQFIFQYYEEEERQRGNFPDRFSGHQFPNYSSELNVNALLLGDSALYLCASSLGWRGGRYNEQFFGPGTRLTVLEDLRNVTPPKVSLFEPSKAEIANKQKATLVCLARGFFPDHVELSWWVNGKEVHSGVCTDPQAYKESNYSYCLSSRLRVSATFWHNPRNHFRCQVQFHGLSEEDKWPEGSPKPVTQNISAEAWGRADCGITSASYQQGVLSATILYEILLGKATLYAVLVSTLVVMAMVKRKNSRAKRSGSGATNFSLLKQAGDVEENPGPMWGVFLLYVSMKMGGTTGQNIDQPTEMTATEGAIVQINCTYQTSGFNGLFWYQQHAGEAPTFLSYNVLDGLEEKGRFSSFLSRSKGYSYLLLKELQMKDSASYLCASVDGNNRLAFGKGNQVVVIPNIQNPEPAVYQLKDPRSQDSTLCLFTDFDSQINVPKTMESGTFITDKCVLDMKAMDSKSNGAIAWSNQTSFTCQDIFKETNATYPSSDVPCDATLTEKSFETDMNLNFQNLLVIVLRILLLKVAGFNLLMTLRLWSS | – | capable of phagocytosing SCC152 cells | Racl-dependent manner
